Read-outs that look alike come from different tables or passages of the source.

As a reminder, the Kd is the free concentration of one partner at which half of the binding sites on the other are occupied at equilibrium, for simple one-to-one binding.

Experiment [1] addresses T1, full-length human Tau (htau40, 441 residues, 2N4R) (human, UniProt P10636-8 1-441).
Experiment [2] has as its target T1, full-length human Tau (htau40, 441 …). This is another data set of the same source.
The target of experiment [3] is human full-length Hsp90β (human, UniProt P08238 1-724). Description: ITC. (In general: ITC needs no label: the signal is the heat of the interaction.)
The target in experiment [4] is T1, full-length human Tau (htau40, 441 …). The experiment in a line: Hsp90 in presence of FKBP51 (1:1).

Sequence of human full-length Hsp90β (P08238 whole entry): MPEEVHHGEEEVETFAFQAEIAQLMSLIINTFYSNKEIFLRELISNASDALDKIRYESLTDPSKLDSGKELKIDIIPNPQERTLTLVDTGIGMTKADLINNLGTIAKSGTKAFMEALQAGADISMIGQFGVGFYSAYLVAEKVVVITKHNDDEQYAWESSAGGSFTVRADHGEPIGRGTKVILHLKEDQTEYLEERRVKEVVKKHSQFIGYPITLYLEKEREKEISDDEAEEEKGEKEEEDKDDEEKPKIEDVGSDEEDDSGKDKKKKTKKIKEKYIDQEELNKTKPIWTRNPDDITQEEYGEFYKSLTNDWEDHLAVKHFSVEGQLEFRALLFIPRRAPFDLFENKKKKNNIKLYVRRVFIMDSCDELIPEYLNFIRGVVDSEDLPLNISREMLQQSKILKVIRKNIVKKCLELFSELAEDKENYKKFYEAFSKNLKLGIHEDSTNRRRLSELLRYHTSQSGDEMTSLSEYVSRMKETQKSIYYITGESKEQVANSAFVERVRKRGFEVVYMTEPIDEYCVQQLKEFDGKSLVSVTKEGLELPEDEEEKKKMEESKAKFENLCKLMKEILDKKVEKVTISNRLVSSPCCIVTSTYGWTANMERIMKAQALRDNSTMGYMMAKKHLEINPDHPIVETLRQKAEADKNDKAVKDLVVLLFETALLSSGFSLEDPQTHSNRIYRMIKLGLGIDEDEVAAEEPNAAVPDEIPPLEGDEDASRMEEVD

B1: IANBD-labeled Hsp90 M362C (natural protein)
chain: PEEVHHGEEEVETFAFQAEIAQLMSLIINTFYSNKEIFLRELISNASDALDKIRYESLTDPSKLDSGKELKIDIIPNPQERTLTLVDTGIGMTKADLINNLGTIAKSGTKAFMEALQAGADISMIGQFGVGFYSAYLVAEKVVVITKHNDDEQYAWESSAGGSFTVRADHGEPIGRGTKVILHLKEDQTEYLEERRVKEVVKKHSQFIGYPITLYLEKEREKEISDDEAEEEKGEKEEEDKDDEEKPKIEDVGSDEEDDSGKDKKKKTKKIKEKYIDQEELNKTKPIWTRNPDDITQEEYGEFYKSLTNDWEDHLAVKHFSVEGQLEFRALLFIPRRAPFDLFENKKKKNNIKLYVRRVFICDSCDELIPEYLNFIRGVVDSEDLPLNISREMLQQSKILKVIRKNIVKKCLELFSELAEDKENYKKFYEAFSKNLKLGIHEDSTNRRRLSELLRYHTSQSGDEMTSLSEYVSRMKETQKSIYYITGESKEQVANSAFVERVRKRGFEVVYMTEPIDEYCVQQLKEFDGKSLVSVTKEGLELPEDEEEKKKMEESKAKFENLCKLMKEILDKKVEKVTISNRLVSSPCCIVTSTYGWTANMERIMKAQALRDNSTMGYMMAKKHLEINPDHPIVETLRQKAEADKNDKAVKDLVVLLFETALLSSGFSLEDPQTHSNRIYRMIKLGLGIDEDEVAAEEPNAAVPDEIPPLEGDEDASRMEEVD
modifications: IANBD amide fluorescent dye on Cys362 (M362C)
In the case of B1, in experiment [1], binding was put at a Kd of 4.2 µM.

B2: full-length human FKBP51 (natural protein)
chain: MTTDEGAKNNEESPTATVAEQGEDITSKKDRGVLKIVKRVGNGEETPMIGDKVYVHYKGKLSNGKKFDSSHDRNEPFVFSLGKGQVIKAWDIGVATMKKGEICHLLCKPEYAYGSAGSLPKIPSNATLFFEIELLDFKGEDLFEDGGIIRRTKRKGEGYSNPNEGATVEIHLEGRCGGRMFDCRDVAFTVGEGEDHDIPIGIDKALEKMQREEQCILYLGPRYGFGEAGKPKFGIEPNAELIYEVTLKSFEKAKESWEMDTKEKLEQAAIVKEKGTVYFKGGKYMQAVIQYGKIVSWLEMEYGLSEKESKASESFLLAAFLNLAMCYLKLREYTKAVECCDKALGLDSANEKGLYRRGEAQLLMNEFESAKGDFEKVLEVNPQNKAARLQISMCQKKAKEHNERDRRIYANMFKKFAEQDAKEEANKAMGKKTSEGVTNEKGTDSQAMEEEKPEGHV
For the molecule B2, the Kd amounted to 45.1 µM in experiment [2] and 249 nM in experiment [3].

B3: IANBD-labeled Hsp90 M362C/FKBP51 (1:1) complex (complex)
chain 1: not shown
chain 2: MTTDEGAKNNEESPTATVAEQGEDITSKKDRGVLKIVKRVGNGEETPMIGDKVYVHYKGKLSNGKKFDSSHDRNEPFVFSLGKGQVIKAWDIGVATMKKGEICHLLCKPEYAYGSAGSLPKIPSNATLFFEIELLDFKGEDLFEDGGIIRRTKRKGEGYSNPNEGATVEIHLEGRCGGRMFDCRDVAFTVGEGEDHDIPIGIDKALEKMQREEQCILYLGPRYGFGEAGKPKFGIEPNAELIYEVTLKSFEKAKESWEMDTKEKLEQAAIVKEKGTVYFKGGKYMQAVIQYGKIVSWLEMEYGLSEKESKASESFLLAAFLNLAMCYLKLREYTKAVECCDKALGLDSANEKGLYRRGEAQLLMNEFESAKGDFEKVLEVNPQNKAARLQISMCQKKAKEHNERDRRIYANMFKKFAEQDAKEEANKAMGKKTSEGVTNEKGTDSQAMEEEKPEGHV
modifications: IANBD amide fluorescent dye on Cys362 (M362C)
On to B3, for which, in experiment [4], the Kd worked out at 8.2 µM.

Source of the values: PMC6208366 (2018).
